Assay results taken from patent US20050278809A1.

What was measured:
[1] = target: GAL4 DB-HDA19 fusion (pDBLeu-HDA19), expressed in MaV203 yeast (yeast; Arabidopsis thaliana) (UniProt P04386); assay: cell-based or functional assay
[2] = target: tobacco ortholog of the transcription repressor HDA19 (tobacco); assay: cell-based or functional assay
[3] = scale: % reduction relative to full-length bnKCP1
[4] = scale: % further reduction relative to the other mutants

Substance	β-galactosidase activity (lacZ reporter, yeast two-hybrid, CPRG) (% reduction relative to wild type BnSCL1) [1]	also measured
GAL4 AD-BnSCL1^1-261 fusion (pPC86-BnSCL1^1-261), expressed in MaV203 yeast	> 50	
GAL4 AD-bnKCP1^1-80 fusion (pPC86-bnKCP1^1-80), expressed in MaV203 yeast (from UniProt Q84U09 1-80)		β-galactosidase activity (lacZ reporter, yeast two-hybrid, CPRG) [1, 3]: > 50
GAL4 AD-BnSCL1^1-358 fusion (pPC86-BnSCL1^1-358), expressed in MaV203 yeast	> 50	
GAL4BD-BnSCL1 fusion protein (effector plasmid GAL4-BnSCL1), expressed transiently in tobacco leaves (from UniProt P04386 1-147)		GUS gene expression (transient assay in bombarded tobacco leaves, fluorometric) [2]: 50 % decrease
GAL4 AD-bnKCP1^1-160 fusion (pPC86-bnKCP1^1-160), expressed in MaV203 yeast (from UniProt Q84U09 1-160)		β-galactosidase activity (lacZ reporter, yeast two-hybrid, CPRG) [1, 3]: > 50
GAL4 AD-BnSCL1^1-217 fusion (pPC86-BnSCL1^1-217), expressed in MaV203 yeast	> 50	
GAL4 AD-BnSCL1^218-438 fusion (pPC86-BnSCL1^218-438), expressed in MaV203 yeast	> 50	β-galactosidase activity (lacZ reporter, yeast two-hybrid, CPRG) [1, 4]: > 50
GAL4 AD-BnSCL1^146-358 fusion (pPC86-BnSCL1^146-358), expressed in MaV203 yeast	> 50	
GAL4 AD-BnSCL1^1-145 fusion (pPC86-BnSCL1^1-145), expressed in MaV203 yeast	> 50	β-galactosidase activity (lacZ reporter, yeast two-hybrid, CPRG) [1, 4]: > 50
